Legend:
[1] = target: human PD-L1 on cell surface (human) (UniProt Q9NZQ7); assay: flow cytometry on CHO cells expressing human PD-L1, fitted curve, negative control
[2] = target: monkey PD-L1 on cell surface (monkey); assay: flow cytometry on CHO cells expressing monkey PD-L1, fitted curve, negative control
[3] = target: biotin-labeled PD-L1-Fc (human) (UniProt Q9NZQ7); assay: ELISA: biotin-PD-L1-Fc binding to coated human PD-1 with titrated antibody; negative control
[4] = target: biotin-labeled PD-L1-Fc (human) (UniProt Q9NZQ7); assay: ELISA: biotin-PD-L1-Fc binding to coated human PD-1 with titrated antibody, OD 450 nm, fitted curve; negative control
[5] = target: biotin-labeled PD-L1-Fc (human) (UniProt Q9NZQ7); assay: flow cytometry: biotin-PD-L1-Fc binding to CHO cells expressing human PD-1 with titrated antibody, fitted curve; negative control

Chain of biotin-labeled PD-L1-Fc (human) (Q9NZQ7 19-238 limits assumed): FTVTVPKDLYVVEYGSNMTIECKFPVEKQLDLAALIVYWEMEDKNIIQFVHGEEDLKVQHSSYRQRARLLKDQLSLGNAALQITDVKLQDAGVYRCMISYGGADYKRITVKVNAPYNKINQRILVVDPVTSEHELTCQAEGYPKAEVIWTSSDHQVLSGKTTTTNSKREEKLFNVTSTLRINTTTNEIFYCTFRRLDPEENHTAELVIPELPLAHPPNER
Chain of human PD-L1 on cell surface (human) (Q9NZQ7 19-290): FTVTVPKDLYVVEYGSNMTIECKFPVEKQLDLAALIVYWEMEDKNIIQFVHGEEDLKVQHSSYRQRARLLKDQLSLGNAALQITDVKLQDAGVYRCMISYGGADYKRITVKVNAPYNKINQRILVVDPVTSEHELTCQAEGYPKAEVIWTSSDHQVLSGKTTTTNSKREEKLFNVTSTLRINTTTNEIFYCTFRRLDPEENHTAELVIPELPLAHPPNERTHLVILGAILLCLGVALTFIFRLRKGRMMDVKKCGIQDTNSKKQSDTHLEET

negative control antibody human IgG
Bottom [1]: 166
EC50 [1]: 0.015 nM
LogEC50 [1]: -1.82
Span [1]: 24.7
Top [1]: 191
Bottom [2]: 216
EC50 [2]: 19.3 nM
LogEC50 [2]: 1.29
Span [2]: 32
Top [2]: 248
EC50 [3]: 2.88 µg/mL
Bottom [4]: 1.75
LogEC50 [4]: 3.46
Span [4]: 0.186
Top [4]: 1.94
Bottom [5]: 5880
LogEC50 [5]: -17.5
Span [5]: 1.15e+06
Top [5]: 1.16e+06

— patent publication US20220073618A1
